What was measured:
Grb2 SH2 = Grb2 SH2 (UniProt P62993); test: SH2 binding enrichment of the phosphorylated peptide, bacterial display (enrichment ratio); higher = better substrate or ligand; peptides without Tyr show the background
SHP2-C SH2 = test: as above
c-Src SH2 = test: as above
FGFR1 = FGFR1 (UniProt P11362); test: phosphorylation enrichment, bacterial display (enrichment ratio); higher = better substrate or ligand; peptides without Tyr show the background
c-Src = test: as above
AncSZ = test: as above
EPHB1 = EPHB1 (UniProt P54762); test: as above
c-Abl (mouse) = test: as above
FGFR3 = FGFR3 (UniProt P22607); test: as above
EPHB2 = EPHB2 (UniProt P29323); test: as above
Hck = Hck (UniProt P08631); test: as above
Fer (mouse) = test: as above
Fes = Fes (UniProt P07332); test: as above
Jak2 = Jak2 (UniProt O60674); test: as above
Fyn = Fyn (UniProt P06241); test: as above
MERTK = MERTK (UniProt Q12866); test: as above
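Throughout, for SH2 binding enrichment of the phosphorylated peptide, bacterial display: peptide library displayed on the E. coli surface as eCPX fusions, selected cells deep-sequenced, score is each peptide's frequency after selection divided by its frequency in the input.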
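Throughout, for phosphorylation enrichment, bacterial display: 11-residue human phosphosite peptides and single-mutation variants displayed on the E. coli surface, counted by deep sequencing, each peptide's frequency after selection divided by its frequency in the unselected input library; frequency after pTyr selection over input frequency; kinase dosed for 20-30% of maximal phosphorylation in three min.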

Sequence of Jak2 (O60674 whole entry, looked up): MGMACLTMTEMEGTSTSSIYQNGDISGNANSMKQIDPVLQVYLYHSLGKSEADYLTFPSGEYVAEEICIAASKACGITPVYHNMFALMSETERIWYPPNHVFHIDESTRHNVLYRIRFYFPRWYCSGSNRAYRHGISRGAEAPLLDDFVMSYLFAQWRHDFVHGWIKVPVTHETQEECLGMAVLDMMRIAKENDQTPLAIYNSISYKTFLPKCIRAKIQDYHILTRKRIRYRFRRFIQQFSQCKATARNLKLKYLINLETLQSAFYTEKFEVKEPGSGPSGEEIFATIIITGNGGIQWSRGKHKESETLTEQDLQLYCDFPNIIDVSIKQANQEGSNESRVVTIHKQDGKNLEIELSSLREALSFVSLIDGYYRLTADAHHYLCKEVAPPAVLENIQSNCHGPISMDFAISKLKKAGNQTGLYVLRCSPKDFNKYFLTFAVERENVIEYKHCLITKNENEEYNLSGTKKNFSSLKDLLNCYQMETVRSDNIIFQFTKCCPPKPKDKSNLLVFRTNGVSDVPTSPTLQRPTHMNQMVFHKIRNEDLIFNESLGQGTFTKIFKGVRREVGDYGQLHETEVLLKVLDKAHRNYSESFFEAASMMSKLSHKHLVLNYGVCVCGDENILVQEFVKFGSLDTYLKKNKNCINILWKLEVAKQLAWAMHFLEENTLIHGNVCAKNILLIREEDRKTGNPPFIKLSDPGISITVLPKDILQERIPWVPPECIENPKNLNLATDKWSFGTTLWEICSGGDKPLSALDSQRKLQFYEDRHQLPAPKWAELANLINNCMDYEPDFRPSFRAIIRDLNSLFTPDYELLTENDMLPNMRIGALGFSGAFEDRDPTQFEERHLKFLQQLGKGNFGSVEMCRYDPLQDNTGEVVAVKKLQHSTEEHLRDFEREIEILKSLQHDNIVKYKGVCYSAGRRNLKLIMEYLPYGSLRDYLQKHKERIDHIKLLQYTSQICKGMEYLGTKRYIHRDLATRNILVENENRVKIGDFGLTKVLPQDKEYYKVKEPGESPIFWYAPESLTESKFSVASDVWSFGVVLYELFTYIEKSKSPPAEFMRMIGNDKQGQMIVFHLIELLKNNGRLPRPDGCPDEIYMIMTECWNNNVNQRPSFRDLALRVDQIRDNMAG
Sequence of EPHB1 (P54762 whole entry, looked up): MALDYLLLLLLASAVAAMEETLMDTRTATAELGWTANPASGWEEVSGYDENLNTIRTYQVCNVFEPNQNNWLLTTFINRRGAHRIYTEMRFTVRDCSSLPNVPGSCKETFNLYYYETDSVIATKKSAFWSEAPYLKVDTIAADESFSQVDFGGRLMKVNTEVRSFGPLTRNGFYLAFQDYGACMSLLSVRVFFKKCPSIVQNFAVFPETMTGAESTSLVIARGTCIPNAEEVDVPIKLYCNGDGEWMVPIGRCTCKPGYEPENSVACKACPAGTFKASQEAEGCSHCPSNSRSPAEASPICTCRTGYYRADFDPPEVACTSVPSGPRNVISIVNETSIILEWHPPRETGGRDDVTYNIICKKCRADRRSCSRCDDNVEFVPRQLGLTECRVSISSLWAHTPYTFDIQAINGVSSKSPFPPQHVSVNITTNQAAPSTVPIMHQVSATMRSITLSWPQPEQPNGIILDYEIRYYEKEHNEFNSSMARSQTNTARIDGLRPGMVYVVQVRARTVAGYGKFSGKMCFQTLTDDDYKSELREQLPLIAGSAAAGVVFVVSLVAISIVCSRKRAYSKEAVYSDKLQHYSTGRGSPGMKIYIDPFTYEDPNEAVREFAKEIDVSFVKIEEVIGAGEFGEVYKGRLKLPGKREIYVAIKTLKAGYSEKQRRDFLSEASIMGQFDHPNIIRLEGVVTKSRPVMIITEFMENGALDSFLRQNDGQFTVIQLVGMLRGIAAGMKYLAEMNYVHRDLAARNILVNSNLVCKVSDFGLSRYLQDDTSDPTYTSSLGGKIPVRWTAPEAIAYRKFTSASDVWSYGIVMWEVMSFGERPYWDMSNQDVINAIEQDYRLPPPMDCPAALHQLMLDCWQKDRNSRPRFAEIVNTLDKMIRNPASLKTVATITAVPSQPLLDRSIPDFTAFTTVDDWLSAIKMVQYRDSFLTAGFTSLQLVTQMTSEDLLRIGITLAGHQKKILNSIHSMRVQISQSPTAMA
Sequence of Fyn (P06241 whole entry, looked up): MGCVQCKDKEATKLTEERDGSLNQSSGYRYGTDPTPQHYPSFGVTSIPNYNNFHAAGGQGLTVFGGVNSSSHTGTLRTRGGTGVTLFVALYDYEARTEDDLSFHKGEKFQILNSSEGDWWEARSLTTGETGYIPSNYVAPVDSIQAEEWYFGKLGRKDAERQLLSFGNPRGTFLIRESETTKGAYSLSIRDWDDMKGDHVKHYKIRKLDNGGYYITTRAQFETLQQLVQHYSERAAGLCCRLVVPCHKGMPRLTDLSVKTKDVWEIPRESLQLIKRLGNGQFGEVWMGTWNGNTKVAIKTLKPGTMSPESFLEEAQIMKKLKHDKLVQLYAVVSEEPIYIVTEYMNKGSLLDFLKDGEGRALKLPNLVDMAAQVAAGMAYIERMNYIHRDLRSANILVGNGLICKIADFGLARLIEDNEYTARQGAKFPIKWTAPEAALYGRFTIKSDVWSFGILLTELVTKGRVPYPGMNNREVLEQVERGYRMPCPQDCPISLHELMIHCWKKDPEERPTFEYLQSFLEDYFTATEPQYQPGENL
Sequence of EPHB2 (P29323 whole entry, looked up): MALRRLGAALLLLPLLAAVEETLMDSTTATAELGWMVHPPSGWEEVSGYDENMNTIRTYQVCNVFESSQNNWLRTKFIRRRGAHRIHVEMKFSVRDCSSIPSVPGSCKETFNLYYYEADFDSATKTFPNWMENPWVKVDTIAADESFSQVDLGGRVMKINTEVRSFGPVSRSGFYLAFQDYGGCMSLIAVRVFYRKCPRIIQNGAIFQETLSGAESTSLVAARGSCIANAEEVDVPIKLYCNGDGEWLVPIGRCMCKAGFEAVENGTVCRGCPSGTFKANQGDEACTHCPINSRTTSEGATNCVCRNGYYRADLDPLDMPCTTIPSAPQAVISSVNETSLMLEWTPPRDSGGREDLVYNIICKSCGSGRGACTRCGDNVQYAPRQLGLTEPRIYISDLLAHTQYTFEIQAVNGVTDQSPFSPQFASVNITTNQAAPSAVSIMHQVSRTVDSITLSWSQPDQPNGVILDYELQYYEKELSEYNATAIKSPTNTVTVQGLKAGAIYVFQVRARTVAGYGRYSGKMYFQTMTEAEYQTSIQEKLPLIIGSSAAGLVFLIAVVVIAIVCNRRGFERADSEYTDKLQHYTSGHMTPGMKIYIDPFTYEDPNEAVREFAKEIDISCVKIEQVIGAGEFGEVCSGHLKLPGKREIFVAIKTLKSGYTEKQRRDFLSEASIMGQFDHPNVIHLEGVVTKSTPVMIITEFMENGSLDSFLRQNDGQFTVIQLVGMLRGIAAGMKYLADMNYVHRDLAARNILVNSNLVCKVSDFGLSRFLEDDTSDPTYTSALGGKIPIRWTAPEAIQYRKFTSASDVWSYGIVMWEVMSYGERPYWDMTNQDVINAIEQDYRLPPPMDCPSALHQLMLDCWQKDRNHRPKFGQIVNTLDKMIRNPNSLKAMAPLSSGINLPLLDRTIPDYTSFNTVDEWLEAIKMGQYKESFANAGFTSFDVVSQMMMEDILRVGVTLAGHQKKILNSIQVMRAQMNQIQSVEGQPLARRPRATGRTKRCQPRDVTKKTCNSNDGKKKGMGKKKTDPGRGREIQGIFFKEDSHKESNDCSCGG
Sequence of FGFR3 (P22607 whole entry, looked up): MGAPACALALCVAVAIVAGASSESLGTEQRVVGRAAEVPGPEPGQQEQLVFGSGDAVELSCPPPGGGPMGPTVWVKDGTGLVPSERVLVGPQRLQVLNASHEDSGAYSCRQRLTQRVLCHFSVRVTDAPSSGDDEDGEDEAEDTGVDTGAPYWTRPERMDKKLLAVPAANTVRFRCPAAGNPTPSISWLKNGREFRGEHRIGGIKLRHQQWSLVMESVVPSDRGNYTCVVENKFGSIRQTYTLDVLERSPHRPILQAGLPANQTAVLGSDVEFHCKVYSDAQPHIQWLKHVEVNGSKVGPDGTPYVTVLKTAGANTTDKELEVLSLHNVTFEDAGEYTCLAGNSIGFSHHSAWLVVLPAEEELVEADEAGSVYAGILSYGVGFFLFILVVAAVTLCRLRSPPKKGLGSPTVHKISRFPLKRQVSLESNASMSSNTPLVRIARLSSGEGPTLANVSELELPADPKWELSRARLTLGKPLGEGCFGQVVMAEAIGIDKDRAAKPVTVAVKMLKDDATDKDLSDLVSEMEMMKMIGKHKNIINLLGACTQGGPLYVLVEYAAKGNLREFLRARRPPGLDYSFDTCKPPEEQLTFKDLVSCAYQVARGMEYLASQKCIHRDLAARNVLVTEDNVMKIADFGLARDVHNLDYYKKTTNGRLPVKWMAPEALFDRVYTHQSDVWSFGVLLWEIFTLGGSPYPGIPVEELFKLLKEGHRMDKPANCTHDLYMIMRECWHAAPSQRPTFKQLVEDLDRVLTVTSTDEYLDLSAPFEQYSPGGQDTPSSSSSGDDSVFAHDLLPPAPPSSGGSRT
Sequence of Hck (P08631 whole entry, looked up): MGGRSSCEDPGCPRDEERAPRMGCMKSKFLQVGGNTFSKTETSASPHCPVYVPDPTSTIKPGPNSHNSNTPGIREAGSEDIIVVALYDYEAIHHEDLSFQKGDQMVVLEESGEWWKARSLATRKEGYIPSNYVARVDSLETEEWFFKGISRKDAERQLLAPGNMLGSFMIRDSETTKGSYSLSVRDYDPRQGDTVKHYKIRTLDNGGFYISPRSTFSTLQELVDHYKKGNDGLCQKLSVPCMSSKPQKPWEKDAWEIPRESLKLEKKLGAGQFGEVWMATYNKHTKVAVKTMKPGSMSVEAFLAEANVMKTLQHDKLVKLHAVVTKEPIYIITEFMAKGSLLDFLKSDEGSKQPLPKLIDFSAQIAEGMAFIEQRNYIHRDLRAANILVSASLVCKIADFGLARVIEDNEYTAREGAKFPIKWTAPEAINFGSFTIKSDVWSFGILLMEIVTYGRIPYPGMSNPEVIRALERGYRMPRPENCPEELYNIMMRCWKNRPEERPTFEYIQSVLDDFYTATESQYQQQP

Row | SH2 binding enrichment (Grb2 SH2) | SH2 binding enrichment (SHP2-C SH2) | SH2 binding enrichment (c-Src SH2) | Sequence | phosphorylation enrichment (FGFR1) | phosphorylation enrichment (c-Src) | phosphorylation enrichment (AncSZ) | phosphorylation enrichment (EPHB1) | phosphorylation enrichment (c-Abl (mouse)) | phosphorylation enrichment (FGFR3) | phosphorylation enrichment (EPHB2) | phosphorylation enrichment (Hck) | phosphorylation enrichment (Fer (mouse)) | phosphorylation enrichment (Fes) | phosphorylation enrichment (Jak2) | phosphorylation enrichment (Fyn) | phosphorylation enrichment (MERTK)
1 | 0.876 | 0.71 | 0.433 | ASSPVYVPTTR [GATA6_Y188] | 0.323 | 0.51 | 0.525 | 0.397 | 0.524 | 0.428 | 0.479 | 0.646 | 0.406 | 0.539 | 0.44 | 0.429 | 0.493
2 | 0.746 | 0.53 | 0.452 | MPIPMYDGSQA [CARMIL1_Y637_A639G] | 0.434 | 0.44 | 0.623 | 1.1 | 0.639 | 0.532 | 0.634 | 0.53 | 0.402 | 0.777 | 0.963 | 0.52 | 0.447
3 | 0.807 | 0.537 | 0.469 | SVVVPFEPPEV [TP53_Y220_Y220F] | 0.533 | 0.552 | 1.04 | 0.578 | 0.866 | 0.668 | 0.628 | 0.502 | 0.467 | 1.22 | 1.06 | 0.41 | 0.39
4 | 0.803 | 0.871 | 0.628 | HDHFGYRQSVT [CD55_Y245_R240H_YF] | 0.479 | 0.725 | 0.733 | 0.65 | 0.659 | 0.528 | 0.434 | 0.51 | 0.482 | 0.896 | 0.536 | 0.444 | 0.346
5 | 1.16 | 1.57 | 0.872 | HFIKLYEEKTG [PARP1_Y618_M615I] | 0.456 | 0.392 | 1.69 | 1.17 | 0.781 | 0.807 | 1.08 | 0.828 | 0.798 | 0.952 | 1.03 | 0.978 | 0.694
6 | 0.952 | 0.841 | 0.559 | NKPTVCGVSPN [ABL1_Y226_Y226C] | 0.526 | 0.5 | 0.655 | 0.476 | 0.996 | 0.589 | 0.536 | 0.404 | 0.441 | 0.919 | 0.759 | 0.439 | 0.467
7 | 3.06 | 0.835 | 0.794 | RFLERYIFNPE [HLA-DPB1_Y57_R61P_YF] | 0.46 | 0.804 | 1.27 | 0.892 | 1 | 0.624 | 0.666 | 0.51 | 0.627 | 1.25 | 1.39 | 0.557 | 0.521
8 | 0.745 | 0.803 | 0.382 | VEFAKYGSLQG [RET_Y809_R813Q_YF] | 0.43 | 0.546 | 0.663 | 0.536 | 0.619 | 0.578 | 0.471 | 0.741 | 0.44 | 0.9 | 0.846 | 0.556 | 0.384
9 | 1.82 | 1.74 | 1.23 | GIFKDYFRFNF [PLA2G2D_Y85_S80G_YF] | 4.19 | 0.622 | 1.16 | 0.57 | 0.897 | 2.94 | 0.47 | 0.579 | 0.507 | 1.18 | 3.79 | 0.501 | 0.56
10 | 1.14 | 0.876 | 0.759 | QNTVDYFDLFG [PTPN11_Y62_G60V_YF] | 16.2 | 0.619 | 2.35 | 2.34 | 0.988 | 12.3 | 1.16 | 0.595 | 0.609 | 1.44 | 2.22 | 0.614 | 0.646
11 | 0.729 | 0.508 | 0.551 | PPAPRYHDSAV [LZTR1_Y119_H121D] | 0.532 | 0.728 | 0.73 | 0.658 | 0.743 | 0.711 | 0.476 | 0.684 | 0.448 | 0.877 | 0.979 | 0.861 | 0.741
12 | 0.791 | 0.794 | 0.49 | AGVIIYTSRFQ [PFAS_Y538_A535V] | 0.679 | 0.578 | 1.05 | 0.636 | 0.522 | 0.792 | 0.631 | 0.664 | 0.574 | 1.42 | 0.87 | 0.649 | 0.429
13 | 0.91 | 0.981 | 0.596 | RGVVMYTSKDR [ZG16B_Y136_M133V] | 0.433 | 0.622 | 0.694 | 0.601 | 1.4 | 0.568 | 0.724 | 0.677 | 0.41 | 0.865 | 1.02 | 0.665 | 0.552
14 | 1.88 | 1.5 | 1.14 | SLLVVYPWTQR [HBB_Y36_R31S] | 0.438 | 0.36 | 1.05 | 0.462 | 0.602 | 0.513 | 0.544 | 0.395 | 0.398 | 1.01 | 0.804 | 0.516 | 0.374
15 | 1.07 | 0.887 | 0.66 | IGSQRYQLGVR [RB1_Y446_K447Q] | 0.346 | 0.343 | 0.439 | 0.315 | 0.451 | 0.388 | 0.303 | 0.34 | 0.403 | 0.534 | 0.413 | 0.365 | 0.385
16 | 0.857 | 0.589 | 0.582 | EDASEYYENYI [PARP4_Y214_F215Y] | 1.66 | 1.02 | 1.93 | 0.782 | 0.716 | 1.6 | 0.761 | 0.666 | 0.995 | 1.3 | 1.02 | 0.738 | 0.467
17 | 0.936 | 1.15 | 0.655 | PSQRRYLFFFS [PTEN_Y174_V175L_YF] | 0.607 | 0.441 | 1.86 | 0.818 | 0.991 | 0.915 | 0.804 | 0.716 | 0.531 | 1.93 | 1.74 | 0.753 | 0.756

Row | SH2 binding enrichment (Grb2 SH2) | SH2 binding enrichment (SHP2-C SH2) | SH2 binding enrichment (c-Src SH2) | Sequence | phosphorylation enrichment (FGFR1) | phosphorylation enrichment (c-Src) | phosphorylation enrichment (AncSZ) | phosphorylation enrichment (EPHB1) | phosphorylation enrichment (c-Abl (mouse)) | phosphorylation enrichment (FGFR3) | phosphorylation enrichment (EPHB2) | phosphorylation enrichment (Hck) | phosphorylation enrichment (Fer (mouse)) | phosphorylation enrichment (Fes) | phosphorylation enrichment (Jak2) | phosphorylation enrichment (Fyn) | phosphorylation enrichment (MERTK)
18 | 1.26 | 1.08 | 1.22 | KDHRDYKYQPR [SOX9_Y172_P170R] | 0.482 | 0.426 | 0.534 | 0.397 | 0.784 | 0.514 | 0.424 | 0.489 | 0.445 | 0.864 | 0.779 | 0.61 | 0.456
19 | 1.69 | 30 | 2.35 | SHNKYYMLVAH [MFSD8_Y134_R139H] | 6.21 | 0.418 | 0.821 | 1.06 | 0.574 | 4.22 | 0.651 | 0.533 | 1.09 | 0.757 | 1.32 | 0.418 | 3.19
20 | 0.895 | 0.93 | 0.566 | RVLKLYGCSPS [ASTL_Y279] | 0.367 | 0.516 | 1.03 | 0.634 | 0.719 | 0.608 | 0.761 | 0.564 | 0.981 | 0.943 | 0.983 | 0.728 | 0.461
21 | 0.722 | 0.566 | 0.533 | HSGVSYYINLC [IGF2R_Y2024_N2020S] | 0.849 | 0.488 | 1.59 | 1.15 | 1.21 | 1.09 | 0.942 | 0.729 | 0.951 | 1.93 | 2.38 | 0.661 | 0.563
22 | 0.868 | 0.864 | 0.611 | RLASVYTKRCS [CPT2_Y508_P504L] | 0.4 | 0.557 | 0.917 | 0.706 | 0.643 | 0.695 | 0.501 | 0.578 | 0.414 | 0.889 | 0.739 | 0.528 | 0.316
23 | 0.663 | 0.488 | 0.406 | CSRRFYQLTKL [AR_Y858] | 0.455 | 0.527 | 0.79 | 0.407 | 0.508 | 0.528 | 0.548 | 0.507 | 0.468 | 0.718 | 0.698 | 0.462 | 0.448
24 | 0.799 | 0.79 | 0.441 | IPQEEYTATGL | 0.506 | 0.56 | 1.16 | 0.622 | 0.924 | 0.653 | 0.512 | 0.461 | 0.562 | 1.39 | 0.955 | 0.437 | 0.378
25 | 0.9 | 0.565 | 0.571 | LYEDHYLLGTS [ASS1_Y87_R86H] | 0.689 | 2.73 | 1.66 | 12.3 | 1.1 | 0.972 | 3.05 | 1.19 | 16.1 | 1.37 | 2.17 | 1.86 | 2.08
26 | 0.755 | 0.553 | 0.784 | KDQGTYEDYVE [MYL6_Y86] | 0.534 | 0.768 | 1.24 | 0.493 | 0.866 | 0.721 | 0.576 | 0.617 | 0.56 | 1.23 | 1.13 | 0.647 | 0.543
27 | 0.847 | 0.82 | 0.617 | PTATSYNPNLA [GABRA1_Y375_T376N] | 0.864 | 1.43 | 1.39 | 0.808 | 1.57 | 0.878 | 0.607 | 0.621 | 0.824 | 1.34 | 1.55 | 0.748 | 1.06
28 | 1.14 | 1.04 | 0.564 | VQDPAYLRDID [OPRK1_Y369] | 0.533 | 0.425 | 1.16 | 0.45 | 0.905 | 0.708 | 0.657 | 0.567 | 0.465 | 1.13 | 1.24 | 0.425 | 0.468
29 | 0.722 | 0.54 | 0.42 | DLAHKYHGGGG [HBB_Y146_A141D] | 0.43 | 0.388 | 0.441 | 0.333 | 0.394 | 0.388 | 0.392 | 0.348 | 0.32 | 0.473 | 0.545 | 0.373 | 0.452
30 | 1.04 | 1.72 | 0.603 | QYNMQYSSSAA [ERBB2IP_Y981_I979M] | 0.792 | 0.859 | 0.882 | 0.445 | 1.09 | 0.655 | 0.687 | 0.732 | 0.872 | 1.18 | 0.956 | 0.736 | 0.793
31 | 0.641 | 0.449 | 0.524 | CSRRLYQLTKL [AR_Y858_F857L] | 0.517 | 0.657 | 0.666 | 0.451 | 0.728 | 0.456 | 0.59 | 0.858 | 0.499 | 0.769 | 0.794 | 0.621 | 0.558
32 | 1 | 0.727 | 1.21 | DDSSAYCSVDE [BCKDHA_Y345_R346C] | 0.544 | 0.535 | 1.32 | 0.621 | 0.712 | 0.692 | 0.505 | 0.58 | 0.521 | 1 | 0.978 | 0.55 | 0.505
33 | 0.895 | 0.608 | 0.606 | CLAKMYFSAVD [CP_Y539_YF] | 0.519 | 0.563 | 1.04 | 0.662 | 1.03 | 0.765 | 0.592 | 0.527 | 0.506 | 1.26 | 1.06 | 0.519 | 0.414

Reference: the supplement of paper PMC10065799, “High-throughput profiling of sequence recognition by tyrosine kinases and SH2 domains using bacterial peptide display” (eLife, 2023)
